Primed or numbered codes have the meaning given here. Where no end group is shown, it is not given here. [ ]: non-standard residue; d: D form. TAMRA = 5(6)-carboxytetramethylrhodamine; PEG6′ = [PEG]6, polyethylene glycol

The target of assay [1] is T1, α-cobratoxin (Naja kaouthia, UniProt P01391 1-71). Kind of assay: fluorescence polarisation. Particulars: both partners purified.
In assay [2] the target is T1, α-cobratoxin. Kind of assay: fluorescence polarisation. Conditions: both partners purified. This is another data set of the same source.

T1 sequence (P01391 whole entry): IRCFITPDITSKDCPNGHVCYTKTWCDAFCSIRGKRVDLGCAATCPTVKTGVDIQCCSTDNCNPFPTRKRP

Consider [PEG6′]YMWDGWYM-NH2 [peptide 12 ([PEG]6-YMWDGWYM-NH2)], for which the Ki with α-cobratoxin [1] turned out to be 26 µM.

As to Ac-HAKTYMWDGWYMPTSH-NH2 [peptide 1 (Ac-HAKTYMWDGWYMPTSH-NH2)], inhibition in the assay with α-cobratoxin [2] was half-maximal at 29 µM (IC50). In the assay with α-cobratoxin [1], this molecule yielded a Ki of 2 µM.

Turning to {TAMRA}-HAKTYMWDGWYMPTSH-NH2 [peptide 9 (TAMRA-HAKTYMWDGWYMPTSH-NH2)], in the assay with α-cobratoxin [1], the Kd was 52 µM.
